Test results as given in patent US20180148504A1 (EISAI R AND D MANAGEMENT, published 2018).

B1: Monoclonal antibody 26A9.C4 (antibody, mouse IgG1, V domains shown)
VH: SGARELVKPGASVKLSCKTSGFTFSSSFISWLKQKPGQSLEWIAWIYGGNGGTSYNQNFTGKAQLTVDTSSSTAYMQFSSLTTEDSAVYYCASETYGNYWYFDVWGAGTTVTVSS
VL: QSPASLSASVGDTVTITCRASGNIHNYLAWYQQKQGKSPQLLVYNAKTLADGVPSRFSGSGSGTQYSLKINSLQPEDFGNYYCQHFWSTPYTFGGGTKLEIK
notes: Murine IgG1 kappa from hybridoma; also called ATCC PTA-123092
B2: Monoclonal antibody 19D4.B7 (antibody, mouse IgG2a, V domains shown)
VH: GARELVKPGASVKLSCTASGFNIKHPYMHWVKQRPDQGLEWIGRIDPANGNTKYDPKFQGKATITADTSSNTAYLQLSSLTSEDTAVYYCGREEVADYTMDYWGQGTSVTVSS
VL: PASLAVSLGQRATISCRASESVDTYGNNFIHWYQQKPGQPPKLLIYLASNLESGVPARFSGSGSRTDFTLTIDPVEADDAATYYCQQNNGDPWTFGGGTKLEIKR
notes: SULFO-TAG conjugated when used as detection antibody in the ECL assay; also called ATCC PTA-11884
B3: Monoclonal antibody 24H8.D3 (antibody, mouse IgG1, V domains shown)
VH: QVQLKESGPGLVAPSQSLSITCTVSGFSLTSYGVSWVRQPPGKGLEWLGVIWGDGSTNYHSTLISRLSISKDNSKSQVFLKLNSLQTDDTATYYCAKPHPAATGAMDYWGQGTSVTVSS
VL: DIQMTQTTSSLSASLGDRVTISCRASQDISNHLNWYQQKPDGTIKLLIYYTSKLHSGVPSRFSGSGSGTDYSLTISNLEQEDIATYFCQQGNTLWTFGGGTKLEIK
notes: Biotin-conjugated when used as capture antibody in the ECL assay; also called ATCC PTA-123090
B4: Monoclonal antibody 2F11.F8 (antibody, mouse IgG1, V domains shown)
VH: ESGPGLVKPSQSLSLTCSVTGYSITSGYYWIWIRQFPGNKLEWMGYINYDGSNNYNPSLKNRISITRDTSKNQFFLKLNSVTTEDTATYYCARGNYYAMDYWGQGTSVTVSS
VL: not shown
notes: Murine IgG1 kappa from hybridoma; also called ATCC PTA-123098 (so in the source)
B5: Monoclonal antibody 30G6.G6.G4.E9 (antibody, mouse IgG1, V domains shown)
VH: GPGLVAPSQSLSITCTVSGFSLTSYGVHWVRQPPGKGLEWLGVIWAGGITNYNSALMSRLSISKDNSKSQVFLKMNSLQTDDTAMYYCARIYYDYDAWFAYWGQGTLVTVSA
VL: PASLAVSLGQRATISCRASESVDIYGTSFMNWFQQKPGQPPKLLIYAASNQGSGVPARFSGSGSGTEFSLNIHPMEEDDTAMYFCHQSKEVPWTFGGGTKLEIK
notes: Murine IgG1 kappa from hybridoma; also called ATCC PTA-123096

How the values were obtained:
[1] = target: T1, recombinant purified FRα (ECL assay calibrator) (human, UniProt P15328 25-234); test: ECL sandwich on FRα, signal to background; capture 19D2.G9; binder = detection Ab
T1 construct: Calibrator of the ECL sandwich assays; also called FRα calibrator; FRα standard
T1 sequence (P15328 25-234 limits assumed): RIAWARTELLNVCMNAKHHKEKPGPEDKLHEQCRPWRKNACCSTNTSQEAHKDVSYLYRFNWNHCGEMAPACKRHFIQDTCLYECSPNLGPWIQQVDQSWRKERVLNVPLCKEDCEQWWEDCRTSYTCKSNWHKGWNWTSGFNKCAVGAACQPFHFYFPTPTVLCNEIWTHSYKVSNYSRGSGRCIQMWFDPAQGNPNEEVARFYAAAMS

[2] = target: T1, recombinant purified FRα (ECL assay …); test: ECL sandwich on FRα, signal to background; capture 28H12.G9; binder = detection Ab
[3] = target: T1, recombinant purified FRα (ECL assay …); test: ECL sandwich, FRα calibrator; capture 1A8.G11.E7; binder = detection Ab
[4] = target: T1, recombinant purified FRα (ECL assay …); test: ECL sandwich on FRα, signal to background; capture 1C6.E12.G8; binder = detection Ab
[5] = target: T1, recombinant purified FRα (ECL assay …); test: ECL sandwich on FRα, signal to background; capture 5C12.H8; binder = detection Ab
[6] = target: T1, recombinant purified FRα (ECL assay …); test: ECL sandwich, FRα calibrator; capture 1C6.E12.G8; binder = detection Ab
[7] = target: T1, recombinant purified FRα (ECL assay …); test: ECL sandwich, FRα calibrator; capture 5C12.H8; binder = detection Ab
[8] = target: T1, recombinant purified FRα (ECL assay …); test: ECL sandwich on FRα, signal to background; capture 1D2.G8.G10; binder = detection Ab
[9] = target: T1, recombinant purified FRα (ECL assay …); test: ECL sandwich, FRα calibrator; capture 1D2.G8.G10; binder = detection Ab
[10] = target: T1, recombinant purified FRα (ECL assay …); test: ECL sandwich on FRα, signal to background; capture 30G6.G6.G4.E9; binder = detection Ab
[11] = target: T1, recombinant purified FRα (ECL assay …); test: ECL sandwich, FRα calibrator; capture 24H8.D3; binder = detection Ab
[12] = target: T1, recombinant purified FRα (ECL assay …); test: ECL sandwich on FRα, signal to background; capture 24H8.F3; binder = detection Ab
[13] = target: T1, recombinant purified FRα (ECL assay …); test: ECL sandwich, FRα calibrator; capture 26A9.C4; binder = detection Ab
[14] = target: T1, recombinant purified FRα (ECL assay …); test: ECL sandwich on FRα, signal to background; capture 6A2.G7; binder = detection Ab
[15] = target: T1, recombinant purified FRα (ECL assay …); test: ECL sandwich, FRα calibrator; capture 19D2.G9; binder = detection Ab
[16] = target: T1, recombinant purified FRα (ECL assay …); test: ECL sandwich, FRα calibrator; capture 24H8.F3; binder = detection Ab
[17] = target: T1, recombinant purified FRα (ECL assay …); test: ECL sandwich, FRα calibrator; capture 19D4.B7; binder = detection Ab
[18] = target: T1, recombinant purified FRα (ECL assay …); test: ECL sandwich on FRα, signal to background; capture 26A9.C4; binder = detection Ab
[19] = target: T1, recombinant purified FRα (ECL assay …); test: ECL sandwich, FRα calibrator; capture 30G6.G6.G4.E9; binder = detection Ab
[20] = target: T1, recombinant purified FRα (ECL assay …); test: ECL sandwich, FRα calibrator; capture 2F11.F8; binder = detection Ab
[21] = target: T1, recombinant purified FRα (ECL assay …); test: ECL sandwich on FRα, signal to background; capture 2F11.F8; binder = detection Ab
[22] = target: T1, recombinant purified FRα (ECL assay …); test: ECL sandwich on FRα, signal to background; capture 19D4.B7; binder = detection Ab
[23] = target: T1, recombinant purified FRα (ECL assay …); test: ECL sandwich on FRα, signal to background; capture 1A8.G11.E7; binder = detection Ab
[24] = target: T1, recombinant purified FRα (ECL assay …); test: ECL sandwich, FRα calibrator; capture 6A2.G7; binder = detection Ab
[25] = target: T1, recombinant purified FRα (ECL assay …); test: ECL sandwich, FRα calibrator; capture 28H12.G9; binder = detection Ab
[26] = target: T2, human folate receptor beta (FRβ), recombinant, C-terminal 6xHis (human, UniProt P14207 17-230, limits assumed); test: direct ELISA, plates coated with 1 µg/mL FR isoform, dilution series of culture supernatant
T2 construct: Transiently expressed in 293F cells and purified; coated on ELISA plates
T2 sequence (P14207 other isoform, or with tags, fused parts or gaps limits assumed): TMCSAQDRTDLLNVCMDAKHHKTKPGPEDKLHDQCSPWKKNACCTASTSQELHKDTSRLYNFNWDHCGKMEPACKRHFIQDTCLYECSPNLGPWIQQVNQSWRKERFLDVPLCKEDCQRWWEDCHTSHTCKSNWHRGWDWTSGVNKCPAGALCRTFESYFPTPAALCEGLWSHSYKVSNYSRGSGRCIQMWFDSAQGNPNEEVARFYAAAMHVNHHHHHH

[27] = target: T3, human folate receptor gamma (FRγ), recombinant, C-terminal 6xHis (human, UniProt P41439 23-245, limits assumed); test: as above
T3 construct: Transiently expressed in 293F cells and purified; coated on ELISA plates
T3 sequence (P41439 other isoform, or with tags, fused parts or gaps limits assumed): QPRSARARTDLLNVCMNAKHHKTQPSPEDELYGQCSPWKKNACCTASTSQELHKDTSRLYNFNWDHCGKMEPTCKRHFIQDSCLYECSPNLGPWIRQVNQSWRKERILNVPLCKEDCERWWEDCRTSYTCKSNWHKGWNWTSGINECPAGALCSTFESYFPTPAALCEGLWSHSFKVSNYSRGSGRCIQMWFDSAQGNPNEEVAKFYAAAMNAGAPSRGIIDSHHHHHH

[28] = target: T1, recombinant purified FRα (ECL assay …); test: ECL sandwich on FRα, signal to background; capture 24H8.D3; binder = detection Ab

Binder	Average of S/B [1]	Average of S/B [2]	Specific signal at 500 pg/mL [3]	Average of S/B [4]	Average of S/B [5]	Specific signal at 500 pg/mL [6]	Specific signal at 500 pg/mL [7]	Average of S/B [8]	Specific signal at 500 pg/mL [9]	Average of S/B [10]	Specific signal at 500 pg/mL [11]	Average of S/B [12]	Specific signal at 500 pg/mL [13]	Average of S/B [14]	Specific signal at 500 pg/mL [15]	Specific signal at 500 pg/mL [16]	Specific signal at 500 pg/mL [17]	Average of S/B [18]	Specific signal at 500 pg/mL [19]	Specific signal at 500 pg/mL [20]	also measured
B1	1	1	62	1	1	58	68	1	64	114	59	1	79	6	79	56	16500	1	6710	61	Average of S/B [21]: 1; Average of S/B [22]: 250; Average of S/B [23]: 1; Specific signal at 500 pg/mL [24]: 361; Specific signal at 500 pg/mL [25]: 62; binding result [26]: no binding; binding result [27]: no binding; Average of S/B [28]: 1
B2	560	17	58700	28	5	2020	320	29	1970	1	49100	207	2630	82	65500	19100	87	34	81	1260	Average of S/B [21]: 17; Average of S/B [22]: 1; Average of S/B [23]: 405; Specific signal at 500 pg/mL [24]: 4960; Specific signal at 500 pg/mL [25]: 1220; Average of S/B [28]: 361
B3	2	1	71	1	1	59	69	1	52	273	69	1	81	38	110	88	40500	1	20300	64	Average of S/B [21]: 1; Average of S/B [22]: 332; Average of S/B [23]: 1; Specific signal at 500 pg/mL [24]: 1930; Specific signal at 500 pg/mL [25]: 97; binding result [26]: no binding; binding result [27]: no binding; Average of S/B [28]: 1
B4	1	1	65	1	1	56	53	1	60	81	59	1	69	23	71	54	26500	1	6790	179	Average of S/B [21]: 1; Average of S/B [22]: 338; Average of S/B [23]: 1; Specific signal at 500 pg/mL [24]: 1180; Specific signal at 500 pg/mL [25]: 73; binding result [26]: no binding; binding result [27]: no binding; Average of S/B [28]: 1
B5																					binding result [26]: no binding; binding result [27]: no binding
